# Measurements: the nanobody polyreactivity screen of Harvey et al. (2022)
# Assay: yeast display, Sf9 membrane polyspecificity reagent, FACS + sequencing; frameworks hold sequencing errors
# Outline: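 After 36–48 hours of galactose induction, yeast (Saccharomyces cerevisiae BJ5465) displaying a synthetic nanobody library were stained at 4 °C for 1 hour with 10% biotinylated, detergent-solubilized Sf9 membrane reagent. Streptavidin microbeads enriched the stained cells before FACS sorting into low and high (top ~1%) gates on anti-HA and streptavidin fluorescence. Each clone's polyreactivity label reflects its gate of origin.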
sequence,measurement,value
QVQLVESGGGLVQAGGSLRLSSAASGHHFRTNAMGWYRQAPGKERELVAVINIGGASTYYADSVKGRFTISRDNAKNTVNLQMNSLKPEDTAVYYCAQEFYDGYFPTFDYDYWGQGTQVTVSS,polyreactivity (PSR sort gate),low polyreactivity
QVQLVESGGGLVQAGGSLRLSCAASGFIFVGNAMGWYRQAPGKERELVAAISRRGSRTFYADSVKGRFTISRDNAKNTVYLQMNSLKPEDTAVYYCATDKWYGYYYWGQGTQVTVSS,polyreactivity (PSR sort gate),low polyreactivity
QVQLVESGAGLVQAGGSLRLSCAASGSTFGINAMGWYRQAPGKERELVASIRGDGGSTYYADSVKGRFTISRDNEKNTVSLQMNSLKPEDTAVYYCNKDDFSSPGENRYHSDPYDSWGQGTQVTVSS,polyreactivity (PSR sort gate),low polyreactivity
QVQLVESGGGLVQAGGSLRLSCAASGRTLPEYVMGWYRQAPGKERELVAAITTAGSTNYADSVKGRFTISRDNAKNTVYLQMNSLKPEDTAVYYCNAYPASRGPGNPLDDYWGQGTQVTVSS,polyreactivity (PSR sort gate),low polyreactivity
QVQLGESGGGLVQAGGSLRLSCAASGFIFRNYAIGWYRPPPGKERELVAAISRSGGSKYYADCVKGRFTISRDKAKNSVYLQMNSLKPVDTAVYYCNKDPRGRIPVPGTWIMDYWGQGTQVTVSS,polyreactivity (PSR sort gate),high polyreactivity
QVQLVESGGGLVQAGGSLRLSCAASASTFVYNAKGWYRQAPGKERELVASITRSGSSTYYADSVKGRFTISRDNAKNTVYLQMNSLKPEDTAVYYCDVRYSVLSNYRYYYWGQGTQVTVSS,polyreactivity (PSR sort gate),low polyreactivity
QVQLVESGGGLVQAGGSLRLSCAASGRIFLNYDMGWYRQAPGKERELVADISISGSTDYADSVKGRFTISRDNAKNTVYLQMNSLKPEDTAVYYCATSFYVSDYYVPYEMGYWGQGTQVTVSS,polyreactivity (PSR sort gate),low polyreactivity
QVQHVESGGGLVQAGGSLRLSCAASGRTFDWNAMGWYRQAPGKERELVAAITYSGGGTYYADSVKGRFTISRDNAKNTVYLQMNSLKPEETAVYYCAAGYPGTWSYYYWGQGTQVTVSS,polyreactivity (PSR sort gate),low polyreactivity
QVQLVESGGGLVQAGGSLRLSCAGSGRIFTDYTMGWYRQAPGQERELVAAISYSGGSTYYADSVKGRFTISRDNAKNTVYLQMNSLKPEDTAVYYCNKDYYLHEGYGYWGQGTQVTVSS,polyreactivity (PSR sort gate),low polyreactivity
QVQLVESGGGLVQAGGTLRLSCAATGRIFARYAMGWYRQAPGKERELVAAITVSGDNTYYADSVKGRFTISRYNAKNTVYLQMNSLKPEDTAVYYCAVRAVLLFGFFEYDYWGQGTQVTVSS,polyreactivity (PSR sort gate),low polyreactivity
QVQRVESGGGLVQAGGSLRLTSAGSGLTFILNAMGWYRQAPGKEREFVAAISRSGVRTYYADSVKGRFTISRDNAKNTVYLQMNSLKPEDTAVYYCAAAAQRGSKPRVELDYWGQGSQVTVSS,polyreactivity (PSR sort gate),high polyreactivity
QVQLVESGGGLVQAGGSLRLSCAASGLTFEYYTMGWYRQAPGKERELVAAITSSGGSTYYADSVKGRFTISRDNAKNTVYLQMNSLKPEDTAVYYCAARWRHYFVWKSYDYWGQGTQVTVSS,polyreactivity (PSR sort gate),low polyreactivity
QVQLVESGGGLVQAGGSLRLSCAASGLIFPQYAMGWYRQAPGKERELVAAISLSGTSTNYADSVKGRFTISRDNAKNTVYLQMNSLKPEDTAVYYCLADQRITQSVELEYDSWGQGSQVTVSS,polyreactivity (PSR sort gate),low polyreactivity
QVQLVESGGGLVQAGGSLRLSCAASGRIFPFYAMGWYRQAPGKERELVAAITQSGGSTYYADSVKGRFTISRDNAKNTVYLQMNSLKPEDTAVYYCAADYGSFLYGYPTYDYWGQGTQVTVSS,polyreactivity (PSR sort gate),low polyreactivity
QVQLVESGGGLVQAGGSLRLSCAASGIIFYLYTKGWYRQAPGKERELVAAITRGGSTYYADSVKGRFTISRDNAKKTVYLQMNSLKPEDTAVYYCAAKHGPGYRRWYDYWGQGTQVTVSS,polyreactivity (PSR sort gate),high polyreactivity
QVQLVDSGGGLVQAGGSLRLSCAASGLIFDSYDMGWYRQEPGKERELVSPIRRNGGSTYYADSVKGRFTISRDNAMYTVYLQMNSLKPEDTAVYYCAVDNSGYCGVYWVKMDYWGQGSQVTVSS,polyreactivity (PSR sort gate),low polyreactivity
QVQLVESGGGLVQAGGSLRLSCAASGFIFRRYSMGRYRQAPAKERELVAASTSGGGRTYYADSVKGRFTISRDNAKNTVYLQMNSLKPEDTAVYYCARVQRGDYDYWGQGTQVTVSS,polyreactivity (PSR sort gate),high polyreactivity
QVQLVESGGGLVQAGGSLRLSCAASGSIFSTYAMGWYRQAPGKERELVAALDDDGGSTYYADSVKGRFTISRDNAKNTVYLQMNSLKPEDTAVYYCNADYDGNGWAGDYSDSYDYWGQGTQVTVSS,polyreactivity (PSR sort gate),low polyreactivity
QVQLVESGGGLVQAGGSLRLSCAASGRTFAYNTMGWYRQAPGKERELVAVISSGGRTYYADSGKGRFTMSRDNAKNTVYLQMNSLKPEDTAVYYCAADGYPYKYDYWGQGTQVTVSS,polyreactivity (PSR sort gate),high polyreactivity
QVQLVESGGGLVQAGGSLRLSCAASGGTFSSNAMGWYRQAPGKERELVAAISGSGDRTYYADSVKGRFTISRDNAKNTVYLQMNSLKPEDTAVYYCAAEHETGAYYYWGQGTQVTVSS,polyreactivity (PSR sort gate),high polyreactivity
QVQLVESGGGLVQAGGSLRLSCAASGRIFDGNTMGWYRQAPGKERELVAAITYSGGRTSYADSVKGRFTISRDNAKNTVYLQMNSLKPEDTAVYYCNARVVTGSWYEGYYWGQGTQVTVSS,polyreactivity (PSR sort gate),low polyreactivity
QVHLVESGGGLVQAGGSLRLSCAASGSTFYVNAMGWDRQAPGKERELVAAIRSSGRTNYADSVKGRFTISRDNAKNTVYLQMNSLKPEDTAVYYCAAEVPHWPYYGRLHDRDYWGQGTQVTVSS,polyreactivity (PSR sort gate),low polyreactivity
QVQLVESGGGLVQAGGSLRLSCAASGRTFTIYAMGWYRQAPGKEREFVAGITTGGSSTYYADSVKGRFTISRDNAKNTVYLQMNILKPEDTAVYYCAAVSYAWYDYWGQGTHVTVSS,polyreactivity (PSR sort gate),low polyreactivity
QVQLEESGGGLVQAGGSLRLSCAASGRTFTSNPMGLYRKAPGKERELVAAISNSGSSTYYADSVKGRFTISRDNAKNTVYLQMNSLKAEDTAVYYCAAYHYRQNTLYYYWGQGTQVTVSS,polyreactivity (PSR sort gate),high polyreactivity
QVQLVESGGGLVQAGGSLRLSCAASGSIFGYYTMGWYRQAPGKERELVAAITSGGSTNYADSVKGRFTISRDNAKNTVYLQMNSLKPEDTSVYYCAKVSYYPWRYDYWGQGTQVTVSS,polyreactivity (PSR sort gate),low polyreactivity
QVHLVESGGGLVQAGGSLRLSCAASGSTFQWYAMGWYIQAPGKERELVATISYTGGSRTYYADSVKGRFTNSRDNAKNTVYLQMNSLKPEDTAVYDCAAESNQLFYFRRFDFWGQGTQVTVSS,polyreactivity (PSR sort gate),low polyreactivity
QVQLVESGGGLVQAGGSLRLSCAASGRIFYMNAMGWYRQAPGKERELVAGITNSTTGTYYADSVKGRFTISRDNAKNTVYLQMNSLKPEDTAVYYCNTDVAYEEPVETYDYWGQGTQVTVSS,polyreactivity (PSR sort gate),low polyreactivity
QVQLVESGGGLVQAGGSLRLSCAASGLTLYRYVMGWYRQAPGKERELVADISGRGTSTYYADSVKGRFTISRDNAKNTVYLQMNRLKPAATAVYYCNAEYTKTGALVIPYTYYYAEDYWGQGTQVTVSS,polyreactivity (PSR sort gate),low polyreactivity
QVQLVESGGGLVQAGGSLRLSCAASGRIFHGYAMGWYRQAPGKESELVAAISSGGRTNYADSVKGRFTISRDNAKYTVYLQMNSLKPEDTAVYYCAAPVLTSDYTLDSYYWGQGTQVTVSS,polyreactivity (PSR sort gate),high polyreactivity
QVQLVESGGRLVQAGGSLRLSCAASGSIFYSYAMGWYRQAPGKERELVAAISRSGVSTYYADSVKGRFTISRDNAKNTVYFQMNSLKPEDTAVYYCASPYFVSYQGYDYWGQGTQVTVSS,polyreactivity (PSR sort gate),high polyreactivity
QVQLVESGGGLVQAGGSLRLSCAASGGIFVLNAMGWYRQAPGKERELVATITSSGGSTYYADSVKGRFTISRDNAKNTVYLQMNSLKPEDTAVYYCNADWYLWSTFAQGYGYWGQGTQVTVSS,polyreactivity (PSR sort gate),high polyreactivity
QVQLVESGGGLVQAGGSLRLSCAASGFTFSKYAMGWYRPAPGKERELVAAISGSGGSTYYADSVKGRFTISRDNAKITVYLQMNSLKPEDTAVYYCAADGPGKYDYWGQGTQVTVSS,polyreactivity (PSR sort gate),high polyreactivity
QVQLVESGGGLFQAGGSLRLTCAASGFTFIKYSMGWYRQAPGKEREFVATISWNGGNTYYADSVKGRFTISRDNAKNTVYLQMNSLKPEVTAVYYCAARVKYRTRGGTVVSYDYWGQGTQVTVSS,polyreactivity (PSR sort gate),high polyreactivity
QVQLQESGGGLVQAGGSLRLSCAASGYISIGRRMGWYRQAPGKERELVAGINGGGSTNYADSVKGRSTISRDNAKNTVYLQMNSLKPEDTAVYYCAAYVYDYDWYKYWGQGTQVTVSS,polyreactivity (PSR sort gate),high polyreactivity
QVQLVESGGGLVQAGGTLRLSCAASGRIFSKNAMGWYRQAPGKERELVARIRWTGGITYYADSVKGRFTISRDNAKNTVYLQMNSLKPEDTAVYYCAAGSYAGFAVIGYYYWGQGTQVTVSS,polyreactivity (PSR sort gate),low polyreactivity
QVQLVESGGGLVQAGGSLRLSCAASGRIFTRYAMGWYRQATGKERELVAAISSGGGNTYYADSVKGRFTISRDNAKNTVYLQMNSLKPEDTAVYYCAALRSWRKTGGAQRYWYDYWGQGTQVTVSS,polyreactivity (PSR sort gate),high polyreactivity
QVQLVESGGGLVQAGGSLRLSCAASGSIFSPYAMGWYRQAPGKEREFVAAITWSDGGTYADSVKGRFTISRDNAKNTVYLQMNSRKPEDTAVYYCAAKLASYLVTGMDYWGQGTQVTVSS,polyreactivity (PSR sort gate),low polyreactivity
QVQLVESGGGLVQAGGSLRLICAASGSTFSYYTIGWYRTAPGKEMELVATISRRGASTYYADSVKGRFTISLDNAKNTVYLQMNSLKPEDTAVYYCAKSYYYGRSATRPEYDYWGQGTQVTVSS,polyreactivity (PSR sort gate),high polyreactivity
QVQLVESGGGLVQAGGSLRLSCAASGFTFTAYAMGWYRQAPGKERELVAAINWSGSRTYYADSVKGRFTISRDNAKNNVYLKMNSLKPEDTAVYYCNTATSKSSYRHYDYWGQGTQVTVSS,polyreactivity (PSR sort gate),high polyreactivity
QVQLVESGGGLVQAGGSLRLSCAASGGIFLVYTMGWYRQAPGKEREMVAAITSGGSTKYADSVKGRFTISRDNAKNTVYFQMNSLKPEDTAVYYCAAGVQYARYQARYFYWGQGTPVTVSS,polyreactivity (PSR sort gate),high polyreactivity
QVQLVESGGGLVQAGGSLRLSCAASGSTFVKNDMGWYRQAPGKERELVAANSGGSTNYADSVTGRFTISRDNAKNTVYLQMNSLKPEDTAVYYCNAAVITKYAGRGGRPTGRMYYWGQGTQVTVSS,polyreactivity (PSR sort gate),low polyreactivity
QVQLVESGGGLVQAGGSLRLSCAASGGIFRHNAMGWYRQAPGKERELVAAISRSGGNTYYADSVKGRFTISRDNAKNTVYLQMNSLKPEDTAVYYCNKIEYDSWADHVYWGQGTQVTVSS,polyreactivity (PSR sort gate),low polyreactivity
QVQLVESGGGLVQAGGSLRLSCAASGIIFIVNAMGWYRQAPGKERELVAAISNGGSTNYADSVKGRFTISRDNAKNTVYLQMNSLKPEDTAVYYCAADDEGWWVTNYDYWGQGTQVTVSS,polyreactivity (PSR sort gate),low polyreactivity
